From patent US20240336661A1, “PEPTIDES DERIVED FROM RUMINOCOCCUS TORQUES” (University of Copenhagen, priority 2021, published 2024)

Legend:
integrin αV/β5 receptor = integrin αV/β5 receptor (Homo sapiens, UniProt P06756+P18084); experiment: SPOT peptide microarray (μSPOT) binding assay; details: for relative integrin αV/β5 binding in 15-mer peptide library screening: His-tag integrin αV/β5 2.5 nM, semi-quantitative; for relative integrin αV/β5 binding, truncation scanning library of 19-mer epitopes: integrin αV/β5 2.5 nM
Procedure: μSPOT peptide arrays^25 (CelluSpots, Intavis AG, Cologne, Germany) were synthesized using a RePepSL synthesizer (Intavis AG) on acid labile, amino functionalized, cellulose membrane discs (Intavis AG) containing 9-fluorenylmethy-loxycarbonyl-β-alanine (Fmoc-β-Ala) linkers (minimum loading 1.0 μmol/cm). Synthesis was initiated by Fmoc deprotection using 20% piperidine in N-methylpyrrolidone (NMP) (1×2 and 1 ×4 μL, 3 and 5 min, respectively) followed by washing with dimethylforma-mide (DMF, 7×100 μL per disc) and ethanol (EtOH, 3×300 μL per disc). The loading of the discs were reduced to 50%, by using a mixture of Fmoc-Gly-OH and Boc-Gly-OH (0.25 M: 0.25 M in NMP). All couplings were achieved using 1.2 μL of coupling solution consisting of preactivated amino acids (AAs, 0.5 M) with ethyl 2-cyano-2-(hydroxyimino)acetate oxyma (1.5 M) and N,N′-diisopropylcarbodiimide (DIC, 1.1 M) in NMP (2:1:1, AA:oxyma:DIC). The couplings were carried out 6 times (5, 10, 20, 30, 30, and 30 min, respectively), and subsequently, the membrane was capped twice with capping mixture (5% […] in NMP), followed by washes with DMF (7×100 μL per disc). After chain elongation, final Fmoc deprotection was performed with 20% piperidine in NMP (3×4 μL, 5 min each), followed by 6× washes with DMF, subsequent N-terminal acetylation with capping mixture (3×4 μL, 5 min each) and final washes with DMF (7×100 μL per disc) and EtOH (7×200 μL per disc). Dried cellulose membrane discs were transferred to 96 deep-well blocks and were treated with the side-chain deprotection solution consisting of 80% TFA, 12% DCM, 5% H2O, and 3% TIPS (150 μL per well) for 1.5 h at room temperature (rt). Afterward, the deprotection solution was removed, and the discs were solubilized overnight at rt using a solvation mixture containing 88.5% TFA, 4% trifluoromethansufonic acid (TFMSA), 5% H2O, and 2.5% TIPS (250 μL per well). The resulting peptide-cellulose conjugates were precipitated with ice-cold ether (700 μL per well) and spun down at 1000 rpm for 90 min, followed by an additional wash of the formed pellet with ice-cold ether. The resulting pellets were redissolved in DMSO (250 μL per well) to give final stocks, which were transferred to a 384-well plate and printed (in duplicates) on white coated CelluSpots blank slides (76×26 mm, Intavis AG) using a SlideSpotter robot (Intavis AG).
After the peptide array slides were rinsed with 100 mM phosphate buffered saline (PBS) (pH 7.4), the arrays were blocked with 3% bovine serum albumin (BSA) in PBS for >2 h at rt. Subsequently, the arrays were incubated with His-tagged Integrin receptor (2.5 nM) in blocking for 1 h at rt. After 5×1 min washes with blocking buffer the slides were probed with HRP-conjugated 6x-His tag antibody (1:10000, ab184607, abcam) for 0.5 h at rt. Finally, the slides were washed 3×1 min with PBS, 2×1 min with PBST, 2×1 min PBS at rt. The washed arrays visualized using SuperSignal West Femto Maximum Sensitivity Substrate (Thermo Scientific) with Fusion FX SPectra multimodal imaging platform (Vilber). The resulting blots were analyzed using the Array Analyze Software (Active Motif), which defines the error range of each data set by comparing the intensities of each peptide duplicate on the analyzed array.
Prior to the initial screening, we confirmed that the secondary antibody produces no non-specific binding (‘background binding’) to the coated microscopic slide (FIG. 41A). The relative binding affinity of the resulting peptides was then evaluated in a semi-quantitative manner by screening the μSPOT peptide array with recombinantly expressed His-tag integrin αV/β5 (2.5 nM), followed by incubation with a horse radish peroxidase (HRP) conjugated 6x-His antibody (FIG. 41B). […]

integrin receptor = experiment: Integrin inhibitor pre-treatment in RUCILP2 cellular studies; type: cell-based; details: 10 μM for 10 minutes before RUCILP2
Procedure: Human white pre-adipocytes were cultured until 80% confluent and switched into differentiation media (with 0.3 ml/ml fetal calf serum, 8 μg/ml d-biotin, 0.5 μg/ml insulin, 400 ng/ml dexamethasone). The differentiation process to mature adipocytes was completed after 12-14 days. The treatment of RUCILP2 and irisin started from the third day of differentiation. For integrin complex inhibition, cells were treated with 10 μM of CycloRGDyK (Selleckchem, #S7844) for 10 minutes and washed with PBS before treated with RUCILP2 and irisin, respectively. Cells were harvested after 14 days of differentiation and thermogenesis gene were quantified by quantitative polymerase chain reaction (q-PCR).
Two days after induction, cells were switched to inducing medium in the presence of 15 nM recombinant RUCILP2, or commercial recombinant irisin (Sigma, #SRP8039-10UG and Phoenix pharmaceuticals, #067-29A), or saline for two days. After that, cells were maintained in 86 nM insulin and 1 nM T3 in the presence of indicated concentrations of recombinant RUCILP2 or commercial recombinant irisin, or saline for four days with medium change every other day. For inhibition of the integrin complex, cells were treated with 10 μM of cRGDyK for 10 minutes before treatment with recombinant RUCILP2 or commercial recombinant irisin or saline every other day during 6 days of differentiation. […]

mouse 3T3-L1 fibroblasts = experiment: Gene expression in 3T3-L1 fibroblasts (q-PCR); type: cell-based; details: 3T3-L1 fibroblasts
Procedure: 3T3-L1 cells (a murine fibroblast cell line) were split onto 12-well plates and grown to confluence before inducing differentiation by treatment with 86 nM insulin, 0.1 μM dexamethasone, and 250 μM methyl isobutylxanthine. Two days after induction, cells were switched to an inducing medium in the presence of recombinant RUCILPs, or commercial recombinant irisin (Sigma, #SRP8039-10UG and Phoenix pharmaceuticals, #067-29A), or phosphate buffered saline (PBS) for two days. Subsequently, cells were maintained in 86 nM insulin in the presence of indicated concentrations of recombinant RUCILPs, 21-AABP1, commercial recombinant irisin, or PBS for four days with medium change every other day for 6 days. Cells were then harvested for q-PCR analysis as described in standard protocol for gene expression analysis.
Total RNA from cells or tissues was extracted according to the instructions provided by manufacturer of RNeasy mini kit (Qiagen) using QIAzol lysis reagent (Qiagen), followed by measurements of RNA purities and concentrations by NanoDrop 2000 spectrophotometer (Thermo Scientific). A total of 1 μg of RNA was used for the reverse transcription to cDNA using the iScript™ Select cDNA Synthesis Kit (Bio-Rad Laboratories). The samples were subjected to real-time PCR using the LC480 system (Roche Diagnostics) after premixing with Precision®PLUS Master Mix (Primer Design). For each indicated gene, samples were run in duplicate in a 384-well plate and ΔΔCt method was used for quantifying the expressions after normalization to the housekeeping Rpl36 or GAPDH gene.
Firstly, we tested the dose-response effects of RUCILPs on gene expression in mouse fibroblasts (3T3-L1), mouse […] (MLO-Y4), and mouse myoblasts (C2C12). To estimate effect on adipocyte browning, we measured expression of Ucp1, Prdm16, Pgc1a, Dio2 and Cox2, and expression of AdipoQ was measured as a marker of white adipocytes. As a marker of bone formation, we measured expression of Sclerostin; and markers of myotube formation included expression of Heyl, Sox3, and Stat3.

integrin αV/β5 receptor, sequence (P06756 31-992 limits assumed): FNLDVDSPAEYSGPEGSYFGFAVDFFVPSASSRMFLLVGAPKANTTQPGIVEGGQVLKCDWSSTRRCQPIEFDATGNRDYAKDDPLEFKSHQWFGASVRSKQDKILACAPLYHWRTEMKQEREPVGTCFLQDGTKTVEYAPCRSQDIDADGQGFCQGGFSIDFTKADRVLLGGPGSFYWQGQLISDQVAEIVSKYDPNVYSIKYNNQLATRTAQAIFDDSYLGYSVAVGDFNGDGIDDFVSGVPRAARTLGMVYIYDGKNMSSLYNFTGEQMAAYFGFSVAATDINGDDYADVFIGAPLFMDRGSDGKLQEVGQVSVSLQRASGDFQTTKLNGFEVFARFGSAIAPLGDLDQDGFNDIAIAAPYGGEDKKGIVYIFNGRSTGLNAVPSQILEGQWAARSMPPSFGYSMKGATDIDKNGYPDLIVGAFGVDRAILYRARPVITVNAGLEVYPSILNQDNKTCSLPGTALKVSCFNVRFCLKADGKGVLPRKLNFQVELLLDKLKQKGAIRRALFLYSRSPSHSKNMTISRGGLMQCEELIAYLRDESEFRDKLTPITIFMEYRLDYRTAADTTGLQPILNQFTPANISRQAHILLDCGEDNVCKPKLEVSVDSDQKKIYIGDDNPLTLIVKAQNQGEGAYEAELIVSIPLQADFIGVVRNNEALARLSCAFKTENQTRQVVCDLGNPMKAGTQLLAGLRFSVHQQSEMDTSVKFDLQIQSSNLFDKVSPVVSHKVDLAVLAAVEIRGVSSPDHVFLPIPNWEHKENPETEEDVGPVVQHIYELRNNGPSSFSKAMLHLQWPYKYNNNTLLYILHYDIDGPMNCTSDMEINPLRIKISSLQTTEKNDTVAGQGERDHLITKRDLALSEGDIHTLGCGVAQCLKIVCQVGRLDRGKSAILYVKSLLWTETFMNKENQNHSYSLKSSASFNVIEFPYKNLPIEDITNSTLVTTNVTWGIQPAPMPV
integrin αV/β5 receptor, sequence (P18084 24-719 limits assumed): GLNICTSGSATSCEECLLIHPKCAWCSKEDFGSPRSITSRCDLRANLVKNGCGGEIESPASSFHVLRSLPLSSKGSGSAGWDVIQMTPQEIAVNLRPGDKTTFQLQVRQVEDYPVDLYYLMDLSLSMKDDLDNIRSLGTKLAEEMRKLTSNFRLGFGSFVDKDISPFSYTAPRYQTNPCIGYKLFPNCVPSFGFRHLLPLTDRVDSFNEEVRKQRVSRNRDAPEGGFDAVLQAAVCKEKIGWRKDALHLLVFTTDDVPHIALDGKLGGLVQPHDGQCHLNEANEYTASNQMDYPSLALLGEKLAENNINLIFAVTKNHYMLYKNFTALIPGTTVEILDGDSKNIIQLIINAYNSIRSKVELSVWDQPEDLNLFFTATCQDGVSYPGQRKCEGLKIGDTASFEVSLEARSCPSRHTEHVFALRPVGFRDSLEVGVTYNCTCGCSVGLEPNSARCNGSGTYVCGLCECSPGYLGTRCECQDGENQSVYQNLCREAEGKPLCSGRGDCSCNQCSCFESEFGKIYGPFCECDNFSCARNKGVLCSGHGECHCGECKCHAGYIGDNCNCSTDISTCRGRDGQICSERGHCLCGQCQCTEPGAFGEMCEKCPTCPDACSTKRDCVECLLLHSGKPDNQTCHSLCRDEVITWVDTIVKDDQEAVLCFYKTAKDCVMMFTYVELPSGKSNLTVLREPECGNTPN

Substance	relative integrin αV/β5 binding in 15-mer peptide library screening (integrin αV/β5 receptor)	further results
SEQ ID NO: 169: 19-mer binding epitope of RUCILP1, residues 12-30, ETSAKVSWKNAADGKEAAG (Ruminococcus torques)	binding epitopes	
SEQ ID NO: 235: 9-mer truncation of RUCILP1 epitope, residues 12-20, ETSAKVSWK (Ruminococcus torques)		relative integrin αV/β5 binding, truncation scanning library of 19-mer epitopes (integrin αV/β5 receptor): high binding affinity
SEQ ID NO: 168: C-terminal 15-mer of RUCILP2, residues 73-87, NESVKSEKVTFKTLK (Ruminococcus torques)	relatively high affinity	
SEQ ID NO: 165: 15-mer of RUCILP2, residues 70-84, AAGNESVKSEKVTFK (Ruminococcus torques)	significant binding	
CycloRGDyK		effect of pre-treatment on cellular effects of RUCILP2 (integrin receptor): blocked
21-AABP1: the 21-amino acids fragment derived from RUCILP1 (DGTTYSVEVTAVDAAGEESAK; Ruminococcus torques)		effects on browning markers Ucp1, Prdm16, Dio2 (mouse 3T3-L1 fibroblasts): non-significant
SEQ ID NO: 268: 9-mer truncation of RUCILP2 epitope, residues 12-20, ETSAKASWK (Ruminococcus torques)		relative integrin αV/β5 binding, truncation scanning library of 19-mer epitopes (integrin αV/β5 receptor): high binding affinity
SEQ ID NO: 95: C-terminal 15-mer of RUCILP1, residues 74-88, ESAKSEKVEFTTVKK (Ruminococcus torques)	relatively high affinity	
SEQ ID NO: 183: 19-mer binding epitope of RUCILP2, residues 12-30, ETSAKASWKNAADGKEAAG (Alanine scanning sequence; (1)..(19) Alanine scanning sequence of RUCILP1)	binding epitopes	
